According to EP1516629B1:
Changes are numbered by the printed parent chain.

T1: rhesus CD11a (rhesus) (UniProt H9Z8N3)
T1 sequence: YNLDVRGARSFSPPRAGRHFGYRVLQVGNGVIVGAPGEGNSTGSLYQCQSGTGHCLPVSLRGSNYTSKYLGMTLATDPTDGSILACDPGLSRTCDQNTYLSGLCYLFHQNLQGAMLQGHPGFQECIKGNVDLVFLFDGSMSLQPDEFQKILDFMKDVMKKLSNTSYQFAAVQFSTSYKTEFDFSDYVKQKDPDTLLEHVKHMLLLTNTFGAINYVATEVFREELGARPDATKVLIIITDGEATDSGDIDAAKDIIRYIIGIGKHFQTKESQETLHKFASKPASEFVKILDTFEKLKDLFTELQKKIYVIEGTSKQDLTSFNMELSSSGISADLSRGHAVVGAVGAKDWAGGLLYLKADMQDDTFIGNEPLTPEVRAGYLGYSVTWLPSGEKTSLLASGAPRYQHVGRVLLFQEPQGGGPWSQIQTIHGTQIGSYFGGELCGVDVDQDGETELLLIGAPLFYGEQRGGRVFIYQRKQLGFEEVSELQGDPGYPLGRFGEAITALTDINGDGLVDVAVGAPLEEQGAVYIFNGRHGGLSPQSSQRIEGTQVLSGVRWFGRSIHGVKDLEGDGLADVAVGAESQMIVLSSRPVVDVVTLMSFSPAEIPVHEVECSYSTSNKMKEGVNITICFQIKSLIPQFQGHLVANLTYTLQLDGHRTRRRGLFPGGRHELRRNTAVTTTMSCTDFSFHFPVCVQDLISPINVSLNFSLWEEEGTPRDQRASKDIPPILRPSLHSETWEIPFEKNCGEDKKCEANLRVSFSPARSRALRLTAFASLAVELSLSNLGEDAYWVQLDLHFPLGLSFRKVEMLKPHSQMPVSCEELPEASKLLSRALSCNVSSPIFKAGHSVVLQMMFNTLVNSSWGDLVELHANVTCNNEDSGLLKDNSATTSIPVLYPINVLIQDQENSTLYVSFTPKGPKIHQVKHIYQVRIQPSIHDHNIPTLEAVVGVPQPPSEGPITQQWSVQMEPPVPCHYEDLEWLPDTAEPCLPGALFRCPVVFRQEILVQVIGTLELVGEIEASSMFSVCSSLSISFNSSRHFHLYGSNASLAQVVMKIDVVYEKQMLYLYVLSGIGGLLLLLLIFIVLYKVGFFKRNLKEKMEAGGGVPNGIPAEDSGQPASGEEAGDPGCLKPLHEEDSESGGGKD

T2: human CD11a (human) (UniProt P20701)
T2 sequence (looked up): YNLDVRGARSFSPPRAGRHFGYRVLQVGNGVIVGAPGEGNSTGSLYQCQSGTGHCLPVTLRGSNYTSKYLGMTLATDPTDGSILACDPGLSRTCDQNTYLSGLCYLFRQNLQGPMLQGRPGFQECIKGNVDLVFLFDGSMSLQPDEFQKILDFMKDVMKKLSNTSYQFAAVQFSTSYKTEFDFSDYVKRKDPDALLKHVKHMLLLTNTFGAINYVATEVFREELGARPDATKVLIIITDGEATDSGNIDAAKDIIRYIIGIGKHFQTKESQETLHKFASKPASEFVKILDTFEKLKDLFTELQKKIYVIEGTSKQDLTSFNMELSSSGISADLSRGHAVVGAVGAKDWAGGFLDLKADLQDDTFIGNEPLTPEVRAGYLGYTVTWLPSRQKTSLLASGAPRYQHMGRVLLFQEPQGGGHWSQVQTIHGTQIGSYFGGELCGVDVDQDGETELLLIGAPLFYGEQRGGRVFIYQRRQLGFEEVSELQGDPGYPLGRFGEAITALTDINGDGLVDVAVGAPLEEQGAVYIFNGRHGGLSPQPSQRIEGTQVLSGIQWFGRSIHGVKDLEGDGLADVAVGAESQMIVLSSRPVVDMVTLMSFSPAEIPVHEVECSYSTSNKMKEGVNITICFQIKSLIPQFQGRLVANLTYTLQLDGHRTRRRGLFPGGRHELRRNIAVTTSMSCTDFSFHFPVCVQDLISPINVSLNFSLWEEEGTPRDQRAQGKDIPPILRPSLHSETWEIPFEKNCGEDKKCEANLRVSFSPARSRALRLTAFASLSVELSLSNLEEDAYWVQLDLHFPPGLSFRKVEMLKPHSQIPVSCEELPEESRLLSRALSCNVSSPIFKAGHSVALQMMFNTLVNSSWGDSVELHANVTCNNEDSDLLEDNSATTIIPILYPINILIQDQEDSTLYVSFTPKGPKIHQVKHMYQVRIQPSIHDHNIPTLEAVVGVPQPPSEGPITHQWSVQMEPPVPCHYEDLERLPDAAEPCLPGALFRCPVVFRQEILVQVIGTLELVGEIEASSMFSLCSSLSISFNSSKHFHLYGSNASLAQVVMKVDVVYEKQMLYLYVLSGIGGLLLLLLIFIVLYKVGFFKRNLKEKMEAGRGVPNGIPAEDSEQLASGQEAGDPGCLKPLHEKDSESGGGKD

B1: L1 variant IgG1 (antibody, V domains shown)
VH: EVQLVESGGGLVQPGGSLRLSCAASGYSFTGHWMNWVRQAPGKGLEWVGMIHPSDSETRYNQKFKDRFTISVDKSKNTLYLQMNSLRAEDTAVYYCARGIYFYGTTYFDYWGQGTLVTVSS
VL: DIQMTQSPSSLSASVGDRVTITCRASAAIAAYLAWYQQKPGKAPKLLIYSGSTLQSGVPSRFSGSGSGTDFTLTISSLQPEDFATYYCQQHNEYPLTFGQGTKVEIKR
B2: SerL50Ala variant IgG1 (antibody, V domains shown)
VH: B1 VH
VL: B1 VL with A27K, A28T, A30S, A31K, S50A
B3: SerL52Ala variant IgG1 (antibody, V domains shown)
VH: B1 VH
VL: B1 VL with A27K, A28T, A30S, A31K, S52A
B4: ThrL53Ala variant IgG1 (antibody, V domains shown)
VH: B1 VH
VL: B1 VL with A27K, A28T, A30S, A31K, T53A
B5: AsnL92Ala variant IgG1 (antibody, V domains shown)
VH: B1 VH
VL: B1 VL with A27K, A28T, A30S, A31K, N92A
B6: GluL93Ala variant IgG1 (antibody, V domains shown)
VH: B1 VH
VL: B1 VL with A27K, A28T, A30S, A31K, E93A
B7: AspH54Ala variant IgG1 (antibody, V domains shown)
VH: B1 VH with D55A
VL: DIQMTQSPSSLSASVGDRVTITCRASKTISKYLAWYQQKPGKAPKLLIYSGSTLQSGVPSRFSGSGSGTDFTLTISSLQPEDFATYYCQQHNEYPLTFGQGTKVEIK
B8: AspH54Asn variant IgG1 (antibody, V domains shown)
VH: B1 VH with D55N
VL: B7 VL
B9: AspH54Gln variant IgG1 (antibody, V domains shown)
VH: B1 VH with D55Q
VL: B7 VL
B10: AspH54Ser variant IgG1 (antibody, V domains shown)
VH: B1 VH with D55S
VL: B7 VL
B11: AspH54Lys variant IgG1 (antibody, V domains shown)
VH: B1 VH with D55K
VL: B7 VL
B12: H2A1 variant IgG1 (antibody, V domains shown)
VH: B1 VH with H52A, S54A
VL: B7 VL
B13: H2C4 variant IgG1 (antibody, V domains shown)
VH: B1 VH with H52A, S54A, D55N, E57A
VL: B7 VL
B14: H2C5 variant IgG1 (antibody, V domains shown)
VH: B1 VH with H52A, S54A, D55N, E57N
VL: B7 VL
B15: H2C6 variant IgG1 (antibody, V domains shown)
VH: B1 VH with H52A, S54A, D55N, E57Q
VL: B7 VL
B16: H2C7 variant IgG1 (antibody, V domains shown)
VH: B1 VH with H52A, S54A, D55A, E57A
VL: B7 VL
B17: H2C10 variant IgG1 (antibody, V domains shown)
VH: B1 VH with H52A, S54A, D55A, E57S
VL: B7 VL
B18: H2C9 variant IgG1 (antibody, V domains shown)
VH: B1 VH with H52A, S54A, D55A, E57N
VL: B7 VL
B19: H2C14 variant IgG1 (antibody, V domains shown)
VH: B1 VH with H52A, S54A, D55S, E57A
VL: B7 VL
B20: H2 variant IgG1 (antibody, V domains shown)
VH: B1 VH with H52A, S54A, S56A
VL: B7 VL
B21: GluH56Ala variant IgG1 (antibody, V domains shown)
VH: B1 VH with E57A
VL: B7 VL
B22: ThrH30Ala variant IgG1 (antibody, V domains shown)
VH: B1 VH with T30A
VL: B7 VL
B23: GlyH31Ala variant IgG1 (antibody, V domains shown)
VH: B1 VH with G31A
VL: B7 VL
B24: ThrH100bAla variant IgG1 (antibody, V domains shown)
VH: B1 VH with T106A
VL: B7 VL
B25: TyrH100cAla variant IgG1 (antibody, V domains shown)
VH: B1 VH with Y107A
VL: B7 VL

What was measured:
rhesus CD11a (rhesus) = target: T1, rhesus CD11a (rhesus); test: binding to rhesus peripheral blood lymphocytes
human CD11a (human) = target: T2, human CD11a (human); test: FACScan, Jurkat cells

Binder	Var.EC50/HuIgG1 EC50 (rhesus CD11a (rhesus))	Var.EC50/HuIgG1 EC50 (human CD11a (human))	also measured
B1	1	1.3	
B2	2.7	1.2	
B3	13.3	1.1	
B4	0.7	0.9	
B5	3.3	3.3	
B6	2.9	1.7	
B7	0.3	147	Variant EC50/HulgG1 EC50 (rhesus CD11a (rhesus)): 0.3; fold improvement in binding over HuIgG1 (rhesus CD11a (rhesus)): 3 fold; Variant EC50/HulgG1 EC50 (human CD11a (human)): 147
B8			Variant EC50/HulgG1 EC50 (rhesus CD11a (rhesus)): 0.1; fold improvement in binding over HuIgG1 (rhesus CD11a (rhesus)): 10 fold; Variant EC50/HulgG1 EC50 (human CD11a (human)): 26
B9			Variant EC50/HulgG1 EC50 (rhesus CD11a (rhesus)): 4.4; Variant EC50/HulgG1 EC50 (human CD11a (human)): 20
B10			Variant EC50/HulgG1 EC50 (rhesus CD11a (rhesus)): 0.9
B11			Variant EC50/HulgG1 EC50 (rhesus CD11a (rhesus)): 3.8
B12	0.013	10.8	fold improvement in binding over HuIgG1 (rhesus CD11a (rhesus)): 77 fold
B13	0.38		
B14	0.11	46	
B15	0.21		
B16	1.03	2.4	
B17	0.22	14.2	
B18	0.22	34.3	
B19	0.021		
B20	0.055	14.1	fold better binding than HuIgG1 (rhesus CD11a (rhesus)): 18 fold
B21	0.3	4	fold improvement in binding over HuIgG1 (rhesus CD11a (rhesus)): 3 fold
B22	1.3	1.7	
B23	2.4	1.2	
B24		1.4	
B25		7.6	
